# According to patent US20210317176A1 (Amgen, published 2021):
# Target: beta-klotho
# Assay: cell-based or functional assay
row,EC50 (ELK-luciferase assay) [nM],Binder
1,0.4,human FGF21 (wild-type mature FGF21 polypeptide) (ligand) HPIPDSSPLLQFGGQVRQRYLYTDDAQQTEAHLEIREDGTVGGAADQSPESLLQLKALKPGVIQILGVKTSRFLCQRPDGALYGSLHFDPEACSFRELLLEDGYNVYQSEAHGLPLHLPGNKSPHRDPAPRGPARFLPLPGLPPAPPEPPGILAPQPPDVGSSDPLSMVGPSQGRSPSYAS

# Target: beta-klotho
# Assay: cell-based or functional assay
# Remark: another data set of the same source
row,"Efficacy (ELK-luciferase assay, relative to wild-type FGF21) [%]",Binder
1,24.9,FGF21 truncation mutant 8-181 (ligand) PLLQFGGQVRQRYLYTDDAQQTEAHLEIREDGTVGGAADQSPESLLQLKALKPGVIQILGVKTSRFLCQRPDGALYGSLHFDPEACSFRELLLEDGYNVYQSEAHGLPLHLPGNKSPHRDPAPRGPARFLPLPGLPPAPPEPPGILAPQPPDVGSSDPLSMVGPSQGRSPSYAS
2,~20,FGF21 truncation mutant 1-166 (ligand) HPIPDSSPLLQFGGQVRQRYLYTDDAQQTEAHLEIREDGTVGGAADQSPESLLQLKALKPGVIQILGVKTSRFLCQRPDGALYGSLHFDPEACSFRELLLEDGYNVYQSEAHGLPLHLPGNKSPHRDPAPRGPARFLPLPGLPPAPPEPPGILAPQPPDVGSSDPL
3,95,FGF21 truncation mutant 1-178 (ligand) HPIPDSSPLLQFGGQVRQRYLYTDDAQQTEAHLEIREDGTVGGAADQSPESLLQLKALKPGVIQILGVKTSRFLCQRPDGALYGSLHFDPEACSFRELLLEDGYNVYQSEAHGLPLHLPGNKSPHRDPAPRGPARFLPLPGLPPAPPEPPGILAPQPPDVGSSDPLSMVGPSQGRSPS
4,112,FGF21 truncation mutant 2-181 (ligand) PIPDSSPLLQFGGQVRQRYLYTDDAQQTEAHLEIREDGTVGGAADQSPESLLQLKALKPGVIQILGVKTSRFLCQRPDGALYGSLHFDPEACSFRELLLEDGYNVYQSEAHGLPLHLPGNKSPHRDPAPRGPARFLPLPGLPPAPPEPPGILAPQPPDVGSSDPLSMVGPSQGRSPSYAS
5,130,FGF21 truncation mutant 3-181 (ligand) IPDSSPLLQFGGQVRQRYLYTDDAQQTEAHLEIREDGTVGGAADQSPESLLQLKALKPGVIQILGVKTSRFLCQRPDGALYGSLHFDPEACSFRELLLEDGYNVYQSEAHGLPLHLPGNKSPHRDPAPRGPARFLPLPGLPPAPPEPPGILAPQPPDVGSSDPLSMVGPSQGRSPSYAS
6,105,FGF21 truncation mutant 1-174 (ligand) HPIPDSSPLLQFGGQVRQRYLYTDDAQQTEAHLEIREDGTVGGAADQSPESLLQLKALKPGVIQILGVKTSRFLCQRPDGALYGSLHFDPEACSFRELLLEDGYNVYQSEAHGLPLHLPGNKSPHRDPAPRGPARFLPLPGLPPAPPEPPGILAPQPPDVGSSDPLSMVGPSQG
7,~20,FGF21 truncation mutant 1-167 (ligand) HPIPDSSPLLQFGGQVRQRYLYTDDAQQTEAHLEIREDGTVGGAADQSPESLLQLKALKPGVIQILGVKTSRFLCQRPDGALYGSLHFDPEACSFRELLLEDGYNVYQSEAHGLPLHLPGNKSPHRDPAPRGPARFLPLPGLPPAPPEPPGILAPQPPDVGSSDPLS
8,74.2,FGF21 truncation mutant 7-181 (ligand) SPLLQFGGQVRQRYLYTDDAQQTEAHLEIREDGTVGGAADQSPESLLQLKALKPGVIQILGVKTSRFLCQRPDGALYGSLHFDPEACSFRELLLEDGYNVYQSEAHGLPLHLPGNKSPHRDPAPRGPARFLPLPGLPPAPPEPPGILAPQPPDVGSSDPLSMVGPSQGRSPSYAS
9,12.5,FGF21 truncation mutant 9-181 (ligand) LLQFGGQVRQRYLYTDDAQQTEAHLEIREDGTVGGAADQSPESLLQLKALKPGVIQILGVKTSRFLCQRPDGALYGSLHFDPEACSFRELLLEDGYNVYQSEAHGLPLHLPGNKSPHRDPAPRGPARFLPLPGLPPAPPEPPGILAPQPPDVGSSDPLSMVGPSQGRSPSYAS
10,93.2,FGF21 truncation mutant 1-180 (ligand) HPIPDSSPLLQFGGQVRQRYLYTDDAQQTEAHLEIREDGTVGGAADQSPESLLQLKALKPGVIQILGVKTSRFLCQRPDGALYGSLHFDPEACSFRELLLEDGYNVYQSEAHGLPLHLPGNKSPHRDPAPRGPARFLPLPGLPPAPPEPPGILAPQPPDVGSSDPLSMVGPSQGRSPSYA
11,84.9,FGF21 truncation mutant 1-169 (ligand) HPIPDSSPLLQFGGQVRQRYLYTDDAQQTEAHLEIREDGTVGGAADQSPESLLQLKALKPGVIQILGVKTSRFLCQRPDGALYGSLHFDPEACSFRELLLEDGYNVYQSEAHGLPLHLPGNKSPHRDPAPRGPARFLPLPGLPPAPPEPPGILAPQPPDVGSSDPLSMV

# Continued, binder first:
row,Binder,"Efficacy (ELK-luciferase assay, relative to wild-type FGF21) [%]"
1,FGF21 truncation mutant 1-165 (ligand) HPIPDSSPLLQFGGQVRQRYLYTDDAQQTEAHLEIREDGTVGGAADQSPESLLQLKALKPGVIQILGVKTSRFLCQRPDGALYGSLHFDPEACSFRELLLEDGYNVYQSEAHGLPLHLPGNKSPHRDPAPRGPARFLPLPGLPPAPPEPPGILAPQPPDVGSSDP,~10
2,FGF21 truncation mutant 1-176 (ligand) HPIPDSSPLLQFGGQVRQRYLYTDDAQQTEAHLEIREDGTVGGAADQSPESLLQLKALKPGVIQILGVKTSRFLCQRPDGALYGSLHFDPEACSFRELLLEDGYNVYQSEAHGLPLHLPGNKSPHRDPAPRGPARFLPLPGLPPAPPEPPGILAPQPPDVGSSDPLSMVGPSQGRS,105
3,FGF21 truncation mutant 1-177 (ligand) HPIPDSSPLLQFGGQVRQRYLYTDDAQQTEAHLEIREDGTVGGAADQSPESLLQLKALKPGVIQILGVKTSRFLCQRPDGALYGSLHFDPEACSFRELLLEDGYNVYQSEAHGLPLHLPGNKSPHRDPAPRGPARFLPLPGLPPAPPEPPGILAPQPPDVGSSDPLSMVGPSQGRSP,112
4,FGF21 truncation mutant 1-171 (ligand) HPIPDSSPLLQFGGQVRQRYLYTDDAQQTEAHLEIREDGTVGGAADQSPESLLQLKALKPGVIQILGVKTSRFLCQRPDGALYGSLHFDPEACSFRELLLEDGYNVYQSEAHGLPLHLPGNKSPHRDPAPRGPARFLPLPGLPPAPPEPPGILAPQPPDVGSSDPLSMVGP,113
5,FGF21 truncation mutant 5-181 (ligand) DSSPLLQFGGQVRQRYLYTDDAQQTEAHLEIREDGTVGGAADQSPESLLQLKALKPGVIQILGVKTSRFLCQRPDGALYGSLHFDPEACSFRELLLEDGYNVYQSEAHGLPLHLPGNKSPHRDPAPRGPARFLPLPGLPPAPPEPPGILAPQPPDVGSSDPLSMVGPSQGRSPSYAS,120
6,FGF21 truncation mutant 4-181 (ligand) PDSSPLLQFGGQVRQRYLYTDDAQQTEAHLEIREDGTVGGAADQSPESLLQLKALKPGVIQILGVKTSRFLCQRPDGALYGSLHFDPEACSFRELLLEDGYNVYQSEAHGLPLHLPGNKSPHRDPAPRGPARFLPLPGLPPAPPEPPGILAPQPPDVGSSDPLSMVGPSQGRSPSYAS,117
7,FGF21 truncation mutant 1-172 (ligand) HPIPDSSPLLQFGGQVRQRYLYTDDAQQTEAHLEIREDGTVGGAADQSPESLLQLKALKPGVIQILGVKTSRFLCQRPDGALYGSLHFDPEACSFRELLLEDGYNVYQSEAHGLPLHLPGNKSPHRDPAPRGPARFLPLPGLPPAPPEPPGILAPQPPDVGSSDPLSMVGPS,97.5
8,FGF21 truncation mutant 1-173 (ligand) HPIPDSSPLLQFGGQVRQRYLYTDDAQQTEAHLEIREDGTVGGAADQSPESLLQLKALKPGVIQILGVKTSRFLCQRPDGALYGSLHFDPEACSFRELLLEDGYNVYQSEAHGLPLHLPGNKSPHRDPAPRGPARFLPLPGLPPAPPEPPGILAPQPPDVGSSDPLSMVGPSQ,96.1
